Assay results as given in paper PMC3082538, “High-Throughput Protein Expression Using a Combination of Ligation-Independent Cloning (LIC) and Infrared Fluorescent Protein (IFP) Detection” (PLoS ONE, 2011).

Key:
Assay in all cases: pull-down; 5 µg purified GST or GST-GRF fusion immobilised on BSA-pretreated magnetic glutathione agarose beads (MagneGST) with 0.5% Nonidet-P40 and 10% BSA; incubated with 1 µg purified IFP fusion protein, room temperature, 60 min; five washes with 0.5% Nonidet-P40; eluate read by infrared imaging (700 nm) in microtiter plates, then SDS-PAGE and in-gel detection
Settings in all cases: both partners purified
GST-GRF1 fusion protein = target: T1, GST-GRF1 fusion protein (Arabidopsis thaliana, UniProt P42643 1-267)
T1 construct: GRF1 of Arabidopsis thaliana (AGI At4g09000), open reading frame in pDEST15; Printed size 58 kDa; Gateway attB linker between GST and GRF1; source: E. coli BL21 (DE3) pLysS, purified (GSTrap HP column, Äkta-FPLC); not shown: GST, N-terminal, kept
T1 sequence (looked up): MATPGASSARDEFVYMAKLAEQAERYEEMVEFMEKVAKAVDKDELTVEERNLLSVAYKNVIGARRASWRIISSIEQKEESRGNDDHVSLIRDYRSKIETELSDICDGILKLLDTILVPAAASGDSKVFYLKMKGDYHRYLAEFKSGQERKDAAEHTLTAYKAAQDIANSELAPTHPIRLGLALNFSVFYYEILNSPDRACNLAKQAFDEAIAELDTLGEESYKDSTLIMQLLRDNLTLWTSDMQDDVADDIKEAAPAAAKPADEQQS

GST-GRF2 fusion protein = target: T2, GST-GRF2 fusion protein (Arabidopsis thaliana, UniProt Q01525 1-259)
T2 construct: GRF2 of Arabidopsis thaliana (AGI At1g78300), open reading frame in pDEST15; Printed size 57 kDa; Gateway attB linker between GST and GRF2; source: E. coli BL21 (DE3) pLysS, purified (GSTrap HP column, Äkta-FPLC); not shown: GST, N-terminal, kept
T2 sequence (looked up): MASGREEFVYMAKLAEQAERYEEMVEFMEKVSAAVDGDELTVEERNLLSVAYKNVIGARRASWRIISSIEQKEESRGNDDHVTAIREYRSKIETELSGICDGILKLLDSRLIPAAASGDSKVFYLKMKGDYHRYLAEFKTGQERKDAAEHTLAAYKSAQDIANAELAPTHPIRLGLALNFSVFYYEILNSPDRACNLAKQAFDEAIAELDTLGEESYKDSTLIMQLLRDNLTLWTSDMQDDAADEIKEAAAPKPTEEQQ

GST-GRF3 fusion protein = target: T3, GST-GRF3 fusion protein (Arabidopsis thaliana, UniProt P42644 1-255)
T3 construct: GRF3 of Arabidopsis thaliana (AGI At5g38480), open reading frame in pDEST15; Printed size 56 kDa; Gateway attB linker between GST and GRF3; source: E. coli BL21 (DE3) pLysS, purified (GSTrap HP column, Äkta-FPLC); not shown: GST, N-terminal, kept
T3 sequence (looked up): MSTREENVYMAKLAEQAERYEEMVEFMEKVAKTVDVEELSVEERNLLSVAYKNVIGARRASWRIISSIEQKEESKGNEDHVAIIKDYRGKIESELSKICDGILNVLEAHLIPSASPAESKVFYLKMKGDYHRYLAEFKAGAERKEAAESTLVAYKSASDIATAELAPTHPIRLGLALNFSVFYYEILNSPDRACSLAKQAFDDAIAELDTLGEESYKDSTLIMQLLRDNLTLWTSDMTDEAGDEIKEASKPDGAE

GST-GRF4 fusion protein = target: T4, GST-GRF4 fusion protein (Arabidopsis thaliana, UniProt P46077 1-267)
T4 construct: GRF4 of Arabidopsis thaliana (AGI At1g35160), open reading frame in pDEST15; Printed size 58 kDa; Gateway attB linker between GST and GRF4; source: E. coli BL21 (DE3) pLysS, purified (GSTrap HP column, Äkta-FPLC); not shown: GST, N-terminal, kept
T4 sequence (looked up): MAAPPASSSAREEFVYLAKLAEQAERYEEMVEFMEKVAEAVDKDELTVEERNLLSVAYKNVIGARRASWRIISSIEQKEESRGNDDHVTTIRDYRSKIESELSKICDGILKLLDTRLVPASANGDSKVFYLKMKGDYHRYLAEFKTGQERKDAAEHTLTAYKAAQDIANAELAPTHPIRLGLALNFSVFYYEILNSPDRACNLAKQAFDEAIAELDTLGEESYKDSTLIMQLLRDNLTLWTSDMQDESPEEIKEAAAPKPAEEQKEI

GST-GRF5 fusion protein = target: T5, GST-GRF5 fusion protein (Arabidopsis thaliana, UniProt P42645 1-268)
T5 construct: GRF5 of Arabidopsis thaliana (AGI At5g16050), open reading frame in pDEST15; Printed size 58 kDa; Gateway attB linker between GST and GRF5; source: E. coli BL21 (DE3) pLysS, purified (GSTrap HP column, Äkta-FPLC); not shown: GST, N-terminal, kept
T5 sequence (looked up): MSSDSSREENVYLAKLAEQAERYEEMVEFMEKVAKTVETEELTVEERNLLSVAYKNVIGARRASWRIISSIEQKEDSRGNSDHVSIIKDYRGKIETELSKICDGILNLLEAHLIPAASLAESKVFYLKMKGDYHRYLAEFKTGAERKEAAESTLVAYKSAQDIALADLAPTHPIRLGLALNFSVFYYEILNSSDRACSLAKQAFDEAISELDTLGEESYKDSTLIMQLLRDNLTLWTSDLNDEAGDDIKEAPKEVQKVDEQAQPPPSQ

GST-GRF6 fusion protein = target: T6, GST-GRF6 fusion protein (Arabidopsis thaliana, UniProt P48349 1-248)
T6 construct: GRF6 of Arabidopsis thaliana (AGI At5g10450), open reading frame in pDEST15; Printed size 56 kDa; Gateway attB linker between GST and GRF6; source: E. coli BL21 (DE3) pLysS, purified (GSTrap HP column, Äkta-FPLC); not shown: GST, N-terminal, kept
T6 sequence (looked up): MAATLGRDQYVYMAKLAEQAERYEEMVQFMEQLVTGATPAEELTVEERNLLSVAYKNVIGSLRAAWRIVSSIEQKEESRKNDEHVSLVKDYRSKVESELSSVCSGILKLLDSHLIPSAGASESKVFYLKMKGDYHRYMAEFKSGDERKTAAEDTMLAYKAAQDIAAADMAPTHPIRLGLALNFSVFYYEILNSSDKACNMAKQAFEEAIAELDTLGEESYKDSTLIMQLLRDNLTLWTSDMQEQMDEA

binding result (GST-GRF1 fusion protein): binds
binding result (GST-GRF2 fusion protein): binds
binding result (GST-GRF3 fusion protein): binds
binding result (GST-GRF4 fusion protein): binds
binding result (GST-GRF5 fusion protein): binds
binding result (GST-GRF6 fusion protein): binds
B1: TPK1(1-79)-TEV-IFP-6xHis fusion protein (domain or fragment, Arabidopsis thaliana, UniProt Q8LBL1 1-79, looked up)
chain: MSSDAARTPLLPTEKIDTMAQDFNLNSRTSSSRKRRLRRSRSAPRGDCMYNDDVKIDEPPPHPSKIPMFSDLNPNLRRV
notes: potassium channel TPK1 of Arabidopsis thaliana (AGI At5g55630), N-terminal cytosolic part, amino acids 1-79; Between TPK1(1-79) and the IFP stand residues from the LIC site and the TEV cleavage site ENLYFQG (LC2 vector: ProteinX-TEV-IFP-6xHis); Printed size 47.6-48 kDa; The IFP moiety carries the chromophore biliverdin (cells grown with hemin); also called TPK1-TEV-IFP-6xHis; …
